The values below come from patent US20140045211.

In series [1] the target is 2D6 ubiquitin-CCL7 fusion.
For series [2], the target named is 3D3 ubiquitin-CCL7 fusion (ubiquitin I3L, V17L, I23V).

B1: Usp2-cc (catalytic core of the mouse deubiquitylating enzyme Usp2) (protein)
chain: SKSAQGLAGLRNLGNTCFMNSILQCLSNTRELRDYCLQRLYMRDLGHTSSAHTALMEEFAKLIQTIWTSSPNDVVSPSEFKTQIQRYAPRFMGYNQQDAQEFLRFLLDGLHNEVNRVAARPKASPETLDHLPDEEKGRQMWRKYLEREDSRIGDLFVGQLKSSLTCTDCGYCSTVFDPFWDLSLPIAKRGYPEVTLMDCMRLFTKEDILDGDEKPTCCRCRARKRCIKKFSVQRFPKILVLHLKRFSESRIRTSKLTTFVNFPLRDLDLREFASENTNHAVYNLYAVSNHSGTTMGGHYTAYCRSPVTGEWHTFNDSSVTPMSSSQVRTSDAYLLFYELASPPSRM
For B1, the “Usp2-cc cleavage time course (SDS-PAGE)” value in series [1] was “the 2D6 fusion (2D6-CCL7) was only partially cleavable, with large amounts of fusion remaining uncleaved after 12 hr”; in series [2], 3D3 ubiquitin (3D3-CCL7) was recognized and cleaved with efficiency similar to that observed for wildtype ubiquitin (WT-CCL7).
